{"source": "paper doi:10.1101/2023.05.26.542392", "target": "R203M mutant of full-length SARS-CoV-2 nucleocapsid (R203M-FLN) (SARS-CoV-2)", "assay": "AUC", "data": [{"substance": "R203M mutant of full-length SARS-CoV-2 nucleocapsid (R203M-FLN) (natural protein)", "values": [{"measurement": "stoichiometry N", "result": 2}]}]}
